Measurements published in article PMC2819048.

Legend:
Assay in all cases: SPR
[1] = molecular target: T1, DnaC R216A (Escherichia coli, UniProt P0AEF0 1-245, R216A)
T1 sequence: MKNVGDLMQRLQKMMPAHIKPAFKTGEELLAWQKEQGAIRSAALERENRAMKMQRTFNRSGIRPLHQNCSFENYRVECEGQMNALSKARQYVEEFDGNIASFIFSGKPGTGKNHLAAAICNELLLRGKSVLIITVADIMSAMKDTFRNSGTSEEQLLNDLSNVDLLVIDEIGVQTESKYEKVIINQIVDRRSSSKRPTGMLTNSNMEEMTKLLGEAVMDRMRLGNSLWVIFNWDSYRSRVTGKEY

[2] = molecular target: T2, DnaC R220A (Escherichia coli, UniProt P0AEF0 1-245, R220A)
T2 sequence: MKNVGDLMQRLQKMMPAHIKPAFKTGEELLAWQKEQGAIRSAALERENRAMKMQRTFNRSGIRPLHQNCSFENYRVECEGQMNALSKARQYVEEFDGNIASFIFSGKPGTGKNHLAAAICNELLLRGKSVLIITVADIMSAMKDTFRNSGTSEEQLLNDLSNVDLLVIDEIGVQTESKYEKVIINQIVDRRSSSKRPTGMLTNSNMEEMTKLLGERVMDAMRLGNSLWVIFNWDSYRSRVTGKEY

[3] = molecular target: T3, DnaC (Escherichia coli, UniProt P0AEF0 1-245)
T3 sequence: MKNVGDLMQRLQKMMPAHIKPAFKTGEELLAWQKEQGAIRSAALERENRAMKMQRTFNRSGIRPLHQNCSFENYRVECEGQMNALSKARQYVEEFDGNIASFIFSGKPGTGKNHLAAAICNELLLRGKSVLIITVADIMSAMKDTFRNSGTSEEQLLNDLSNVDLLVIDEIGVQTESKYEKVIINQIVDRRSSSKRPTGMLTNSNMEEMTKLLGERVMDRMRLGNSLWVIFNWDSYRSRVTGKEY

CATCCAATAAATCATACACAAGGC (ssDNA) [5'-biotinylated oligonucleotide] was tested, and the binding result [1] was “binds”, the binding signal [2] was 1.7 fold stronger than without ATP and the binding signal [3] was ~2.4 fold stronger than without ATP.
